Laboratory results: patent US5451411A, “Methods and compositions for the oral delivery of therapeutic agents” (University of Washington, priority 1993, dated 1995)

What was measured:
[1] = tested on: proliferating cell nuclear antigen (PCNA); test: Cell proliferation in intestinal crypts (PCNA immunohistochemistry, proliferating index); format: in vivo, Sprague-Dawley rats; settings: TGF-β1 I.P. or P.O. in PBS
Experimental: Adult male Sprague-Dawley rats (250±30 g) were caged individually and handled according to the guidelines of American Association for the Accreditation of Laboratory Animal Care (AAALAC). For peroral administration of TGF-β1, the rats were anesthetized with intramuscularly injected ketamine-HCl (40 mg/kg) (Vetalar®, Aveco Inc., Fort Dodge, Iowa) and a catheter was inserted into the stomach perorally to exclude the failure of the formulation to reach stomach and intestine. Intraperitoneal injections were performed into the lower right quadrant of the abdomen. […]
Cell proliferation was quantified using immunohistochemical techniques for detecting proliferating cell nuclear antigen (PCNA), an endogenous marker of proliferating cells. […] The proliferating index (PI) was calculated as the number of epithelial cells in G1, S, G2 or M phase of the cell cycle per length (ram) of crypts counted. Four 0.25 mm areas (1 mm total) were scored for cell proliferation.

[2] = Encapsulation efficiency of 125I-TGF-β1 in alginate beads; format: physicochemical
Experimental: Radioiodination of TGF-β1 : Radioiodination of TGF-β1 was completed in a 3.0-mL Eppendorf tube using a modified chloramine-T method (A. Tuong et al., "Site Specific Radioiodination of Recombinant Himdin," Annal. Biochem. 189:186-191 (1990)). To TGF-β1 (1 mg/1 mL) in 5 mMHCl, 10 μL of carrier-free Na^125 I (1.0 mCi) was added and mixed for 5 minutes. 100 μL of 0.1% chloramine-T was then added and, after vortexing for 60 seconds, the reaction was stopped by the addition of 100 μL of aqueous 0.1% mercaptoethanol followed by 100 μL of […]. ^125 I-TGF-β1 was diluted by adding 1.2 mL of citrate phosphate buffer (CPB), pH 2.6.
Free ^125 I was separated from ^125 I-TGF-β1 by gel filtration on a prepacked Sephadex G-25 column from Pharmacia (Uppsala, Sweden) preequilibrated with CPB. Twenty fractions of 0.5 mL each were collected, and aliquots were counted for activity using a γ-scintillation counter (Model 1185 GammaTrac; Tm Analytic; Elk Grove Village, IL). Separated ^125 I-TGF-β1 (S.A.=0.72 nCi/ng or 187 ng/μL was stored at 4° C. in 1.5 mL-Eppendofftubes. […]
Formation of Beads: 1.5 mL of the prebead mixture was drawn into a syringe equipped with a 30 G needle. […] If ^125 I-TGF-β1 was incorporated in the beads, calcium chloride was retained and counted for activity along with the 1.5 mL-Eppendoff tube to determine the % encapsulation of TGF-β1 in beads. […]

TGF-β1: TGF-β1 (1 mg/mL in 5 mM HCl) obtained from Bristol-Myers Squibb (Seattle, WA)
PCNA staining [1]: moderate staining | Encapsulation efficiency of TGF-β1 in alginate beads ([2]; prebead mixtures made in polypropylene tubes, most preparations): greater than 97.5% | Loss of TGF-β1 ([2]; use of glass vials): more than 98%
